Consider 1 molecule from US20150211000A1 (GLYCOFI, published 2015).

In this experiment the target is T1, PCSK9 (Proprotein convertase subtilisin/kexin type 9) antigen, Alexa 647-conjugated (Pan troglodytes (Chimpanzee); Homo …, UniProt A8T644 31-152; Q8NBP7 153-692, Alexa 647-conjugated).
T1 construct: also called fluorophore-conjugated PCSK9 antigen; fluorophore-labeled PCSK-9 antigen
The experiment is described as follows: flow cytometry / FACS of Fab-displaying Pichia pastoris labeled with Alexa 647-conjugated PCSK9. (In flow cytometry, cells or beads pass a laser one at a time.)

T1 sequence (A8T644 31-152 limits assumed, chain 1 of 2): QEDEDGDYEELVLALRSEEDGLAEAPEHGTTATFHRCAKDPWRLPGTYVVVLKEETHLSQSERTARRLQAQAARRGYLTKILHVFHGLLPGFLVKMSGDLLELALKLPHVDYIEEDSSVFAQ
T1 sequence (A8T644 other isoform, or with tags, fused parts or gaps limits assumed, chain 2 of 2): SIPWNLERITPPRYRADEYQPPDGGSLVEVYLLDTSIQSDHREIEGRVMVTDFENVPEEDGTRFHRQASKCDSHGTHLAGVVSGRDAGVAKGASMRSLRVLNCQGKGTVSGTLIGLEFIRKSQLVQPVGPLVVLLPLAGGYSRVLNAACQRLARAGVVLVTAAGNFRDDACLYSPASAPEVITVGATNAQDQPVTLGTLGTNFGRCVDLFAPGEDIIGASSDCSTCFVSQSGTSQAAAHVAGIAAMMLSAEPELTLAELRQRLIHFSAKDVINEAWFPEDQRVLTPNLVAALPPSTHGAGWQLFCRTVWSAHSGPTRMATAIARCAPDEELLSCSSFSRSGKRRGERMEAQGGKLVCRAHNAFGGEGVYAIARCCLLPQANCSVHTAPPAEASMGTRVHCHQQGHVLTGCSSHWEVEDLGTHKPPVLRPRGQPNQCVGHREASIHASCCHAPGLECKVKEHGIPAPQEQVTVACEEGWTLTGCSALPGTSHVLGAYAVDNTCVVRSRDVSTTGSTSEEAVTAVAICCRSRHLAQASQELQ

B1: anti-CD20 (Genmab) Fab fragment, heavy chain fused to GR1 coiled coil peptide, displayed on Pichia pastoris strain YGLY7761 (Fab, V domains shown)
VH: AVQLVESGGGLVQPGRSLRLSCAASGFTFGDYTMHWVRQAPGKGLEWVSGISWNSGSIGYADSVKGRFTISRDNAKNSLYLQMNSLRAEDTALYYCTKDNQYGSGSTYGLGVWGQGTLVTVSS
VL: EIVLTQSPATLSLSPGERATLSCRASQSVSSYLAWYQQKPGQAPRLLIYDASNRATGIPARFSGSGSGTDFTLTISSLEPEDFAVYYCQQRSNWPLTFGGGTKVEIKR
notes: also called α-CD20; anti-CD20 Fab fragment Genmab; not shown: linker and tags of vector pGLY3958 between CH1 and GR1
Take B1: the binding result was “no binding”.
